Assay results as given in the supplement of paper PMC9112550, “Optimization of the antimicrobial peptide Bac7 by deep mutational scanning” (BMC Biology, 2022).

system: Escherichia coli TOP10; test: shrunken log2 fold change of peptide-encoding DNA abundance (4.5 h post-induction vs induction); higher = less antimicrobial activity (less host growth inhibition); settings: time post-induction: 4.5 h; library: site-saturation at positions 5, 18, 19, 20
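Note: peptides expressed intracellularly from a pBAD plasmid library in pooled LB shake-flask culture, induced with 0.3% L-arabinose, DNA abundance read by NGS, three biological replicates, DESeq2 with apeglm shrinkage.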

| Sequence | shrunken log2 fold change |
| --- | --- |
| RRIRWRPPRLPRPRPRPFSNPRP | -0.258 |
| RRIRARPPRLPRPRPRPTWDPRP | 0.604 |
| RRIRIRPPRLPRPRPRPMWMPRP | -0.0849 |
| RRIRGRPPRLPRPRPRPQLFPRP | 0.838 |
| RRIRERPPRLPRPRPRPYRIPRP | -0.0789 |
| RRIRIRPPRLPRPRPRPTMEPRP | -0.523 |
| RRIRRRPPRLPRPRPRPISFPRP | -0.27 |
| RRIRKRPPRLPRPRPRPKWQPRP | 0.0343 |
| RRIRGRPPRLPRPRPRPAYSPRP | -0.0128 |
| RRIRERPPRLPRPRPRPSLYPRP | -0.558 |
| RRIRPRPPRLPRPRPRPLLRPRP | 1.73 |
| RRIRRRPPRLPRPRPRPTLLPRP | 0.465 |
| RRIRYRPPRLPRPRPRPQLKPRP | -0.526 |
| RRIRHRPPRLPRPRPRPLKEPRP | -0.0179 |
| RRIRVRPPRLPRPRPRPLSNPRP | -0.413 |
| RRIRNRPPRLPRPRPRPFICPRP | -0.38 |
| RRIRNRPPRLPRPRPRPLYRPRP | -0.332 |
| RRIRLRPPRLPRPRPRPHDQPRP | 0.276 |
| RRIRERPPRLPRPRPRPPTYPRP | -0.168 |
| RRIRSRPPRLPRPRPRPENCPRP | 0.00362 |
| RRIRWRPPRLPRPRPRPFQCPRP | -0.0406 |
| RRIRWRPPRLPRPRPRPKACPRP | 0.105 |
| RRIRRRPPRLPRPRPRPGDNPRP | 0.169 |
| RRIRNRPPRLPRPRPRPFTAPRP | 0.613 |
| RRIRGRPPRLPRPRPRPVILPRP | -0.33 |

| Sequence | shrunken log2 fold change |
| --- | --- |
| RRIRKRPPRLPRPRPRPRAWPRP | 0.389 |
| RRIRQRPPRLPRPRPRPIWVPRP | -0.344 |
| RRIRFRPPRLPRPRPRPKENPRP | -0.222 |
| RRIRHRPPRLPRPRPRPMCTPRP | -0.696 |
| RRIRARPPRLPRPRPRPSSVPRP | -0.0486 |
| RRIRDRPPRLPRPRPRPSTCPRP | -0.0465 |
| RRIRIRPPRLPRPRPRPKSAPRP | -0.0724 |
| RRIRYRPPRLPRPRPRPNPQPRP | -0.0909 |
| RRIRGRPPRLPRPRPRPEVDPRP | 1.84 |
| RRIRNRPPRLPRPRPRPENEPRP | -0.00386 |
| RRIRQRPPRLPRPRPRPQEYPRP | 0.0742 |
| RRIRDRPPRLPRPRPRPPVQPRP | 0.104 |
| RRIRNRPPRLPRPRPRPSSQPRP | -0.208 |
| RRIRSRPPRLPRPRPRPCKLPRP | -0.218 |
| RRIRSRPPRLPRPRPRPFADPRP | -0.0303 |
| RRIRFRPPRLPRPRPRPIWFPRP | -0.129 |
| RRIRCRPPRLPRPRPRPMTLPRP | -0.135 |
| RRIRARPPRLPRPRPRPKNLPRP | -0.181 |
| RRIRLRPPRLPRPRPRPGQMPRP | 0.482 |
| RRIRRRPPRLPRPRPRPWMHPRP | 0.103 |
| RRIRNRPPRLPRPRPRPLNTPRP | -0.413 |
| RRIRKRPPRLPRPRPRPPMGPRP | 0.185 |
| RRIRRRPPRLPRPRPRPNAHPRP | 0.0582 |
| RRIRCRPPRLPRPRPRPWYNPRP | -1.45 |
| RRIRCRPPRLPRPRPRPDGWPRP | 0.378 |

| Sequence | shrunken log2 fold change |
| --- | --- |
| RRIRARPPRLPRPRPRPCDYPRP | -0.295 |
| RRIRSRPPRLPRPRPRPWTTPRP | 0.00749 |
| RRIRARPPRLPRPRPRPILRPRP | 0.0733 |
| RRIRKRPPRLPRPRPRPSKSPRP | -0.141 |
| RRIRHRPPRLPRPRPRPMILPRP | -0.0484 |
| RRIRFRPPRLPRPRPRPSHNPRP | -0.782 |
| RRIRNRPPRLPRPRPRPDKDPRP | -0.253 |
| RRIRSRPPRLPRPRPRPKQRPRP | 0.161 |
| RRIRFRPPRLPRPRPRPENAPRP | 0.402 |
| RRIRGRPPRLPRPRPRPSNLPRP | -0.113 |
| RRIRQRPPRLPRPRPRPWQYPRP | -0.366 |
| RRIRERPPRLPRPRPRPQIPPRP | -0.237 |
| RRIRTRPPRLPRPRPRPEGHPRP | 0.0274 |
| RRIRHRPPRLPRPRPRPKFIPRP | -0.192 |
| RRIRQRPPRLPRPRPRPRPFPRP | 0.149 |
| RRIRYRPPRLPRPRPRPTFWPRP | 0.0421 |
| RRIRCRPPRLPRPRPRPHTTPRP | -0.716 |
| RRIRRRPPRLPRPRPRPHFQPRP | -0.0173 |
| RRIRARPPRLPRPRPRPHASPRP | -0.0111 |
| RRIRERPPRLPRPRPRPEVTPRP | -0.0794 |
| RRIRKRPPRLPRPRPRPLLRPRP | 0.477 |
| RRIRARPPRLPRPRPRPGFRPRP | 0.555 |
| RRIRARPPRLPRPRPRPILKPRP | 0.221 |
| RRIRARPPRLPRPRPRPRLGPRP | 0.606 |
| RRIRLRPPRLPRPRPRPMAHPRP | -0.944 |

| Sequence | shrunken log2 fold change |
| --- | --- |
| RRIRYRPPRLPRPRPRPQGDPRP | -0.074 |
| RRIRDRPPRLPRPRPRPTVKPRP | -0.043 |
| RRIRWRPPRLPRPRPRPLQAPRP | 0.721 |
| RRIRARPPRLPRPRPRPFSVPRP | -0.107 |
| RRIRGRPPRLPRPRPRPQRHPRP | 0.338 |
| RRIRWRPPRLPRPRPRPTGHPRP | 0.317 |
| RRIRFRPPRLPRPRPRPEGSPRP | -0.134 |
| RRIRTRPPRLPRPRPRPVHGPRP | -0.0733 |
| RRIRTRPPRLPRPRPRPKTMPRP | -0.0972 |
| RRIRTRPPRLPRPRPRPLSTPRP | -0.386 |
| RRIRLRPPRLPRPRPRPSDIPRP | -0.0623 |
| RRIRARPPRLPRPRPRPNMPPRP | -0.0377 |
| RRIRMRPPRLPRPRPRPNIGPRP | -0.0302 |
| RRIRRRPPRLPRPRPRPSPVPRP | 0.379 |
| RRIRYRPPRLPRPRPRPLMAPRP | -0.681 |
| RRIRARPPRLPRPRPRPINPPRP | 0.0479 |
| RRIRGRPPRLPRPRPRPSEEPRP | 0.503 |
| RRIRMRPPRLPRPRPRPLYIPRP | -1.01 |
| RRIRLRPPRLPRPRPRPDNQPRP | -0.889 |
| RRIRMRPPRLPRPRPRPNATPRP | 2.16 |
| RRIRLRPPRLPRPRPRPYLRPRP | -0.132 |
| RRIRLRPPRLPRPRPRPEIMPRP | -0.00809 |
| RRIRARPPRLPRPRPRPWIHPRP | -0.264 |
| RRIRKRPPRLPRPRPRPSGWPRP | -0.146 |
| RRIRLRPPRLPRPRPRPVWAPRP | 0.424 |

| Sequence | shrunken log2 fold change |
| --- | --- |
| RRIRPRPPRLPRPRPRPHCQPRP | -0.0117 |
| RRIRIRPPRLPRPRPRPFWLPRP | 0.183 |
| RRIRQRPPRLPRPRPRPHEFPRP | -0.287 |
| RRIRIRPPRLPRPRPRPTAVPRP | 0.028 |
| RRIRRRPPRLPRPRPRPMLKPRP | 0.0333 |
| RRIRKRPPRLPRPRPRPMWVPRP | -0.232 |
| RRIRSRPPRLPRPRPRPWMRPRP | 0.709 |
| RRIRHRPPRLPRPRPRPQPWPRP | 0.0549 |
| RRIRHRPPRLPRPRPRPITDPRP | -0.229 |
| RRIRTRPPRLPRPRPRPFWQPRP | 0.0872 |
| RRIRVRPPRLPRPRPRPTKDPRP | -0.303 |
| RRIRFRPPRLPRPRPRPEVIPRP | 0.0373 |
| RRIRHRPPRLPRPRPRPEAQPRP | -0.00183 |
| RRIRRRPPRLPRPRPRPYNEPRP | -0.103 |
| RRIRARPPRLPRPRPRPDKIPRP | 0.299 |
| RRIRKRPPRLPRPRPRPKQFPRP | -0.123 |
| RRIRQRPPRLPRPRPRPGAVPRP | 0.274 |
| RRIRLRPPRLPRPRPRPIYPPRP | -0.134 |
| RRIRARPPRLPRPRPRPKPGPRP | 0.644 |
| RRIRGRPPRLPRPRPRPSMNPRP | 0.156 |
| RRIRVRPPRLPRPRPRPEEEPRP | 0.0136 |
| RRIRQRPPRLPRPRPRPNHSPRP | -0.762 |
| RRIRSRPPRLPRPRPRPMQNPRP | 0.22 |
| RRIRIRPPRLPRPRPRPMQNPRP | 0.112 |
| RRIRERPPRLPRPRPRPHFLPRP | -0.458 |

| Sequence | shrunken log2 fold change |
| --- | --- |
| RRIRKRPPRLPRPRPRPFQLPRP | 0.0661 |
| RRIRGRPPRLPRPRPRPWAIPRP | 0.259 |
| RRIRCRPPRLPRPRPRPATAPRP | 0.41 |
| RRIRCRPPRLPRPRPRPWICPRP | -1 |
| RRIRTRPPRLPRPRPRPKHNPRP | -0.362 |
| RRIRVRPPRLPRPRPRPVSCPRP | 0.182 |
| RRIRIRPPRLPRPRPRPENSPRP | 0.0169 |
| RRIRPRPPRLPRPRPRPEDMPRP | -0.927 |
| RRIRERPPRLPRPRPRPNTNPRP | -0.0492 |
| RRIRCRPPRLPRPRPRPKVEPRP | 0.345 |
| RRIRWRPPRLPRPRPRPHEFPRP | -0.0844 |
| RRIRPRPPRLPRPRPRPHCDPRP | 0.22 |
| RRIRDRPPRLPRPRPRPCNFPRP | -0.0419 |
| RRIRNRPPRLPRPRPRPMMWPRP | -0.0283 |
| RRIRWRPPRLPRPRPRPPDCPRP | -0.259 |
| RRIRKRPPRLPRPRPRPTSEPRP | 0.79 |
| RRIRRRPPRLPRPRPRPKISPRP | 0.14 |
| RRIRLRPPRLPRPRPRPGLKPRP | 0.12 |
| RRIRWRPPRLPRPRPRPPDFPRP | -0.087 |
| RRIRYRPPRLPRPRPRPHPCPRP | -0.125 |
| RRIRVRPPRLPRPRPRPEYQPRP | -0.235 |
| RRIRFRPPRLPRPRPRPMNLPRP | -0.623 |
| RRIRCRPPRLPRPRPRPIDVPRP | -0.856 |
| RRIRQRPPRLPRPRPRPINNPRP | -0.803 |
| RRIRARPPRLPRPRPRPMAMPRP | 0.282 |
